# Experiment: soluble on expression in E. coli; label from the status in PepcDB or PDB records
row,Sequence,soluble on expression in E. coli
1,MSLVFYGRRLTEAIEVLKQSKISIMLANKGPLIYYRRTGGFPEGPVEKALGLSSLDDLVICPVHSVQPEVSTYLLLRLRTPFIIPPRSTATIYLKAPVAAGVYVTANGEQRLVDYFGPSVFKYALYGPPAVGQVCRFYITDIFSEVPEAGPWEAVTKVVVENTSDNYVEIRNVIYPIVYAQFYIDNMGNAYLETSKLSITSSNVGVVELRNEPPISGLPTCLKTEGGLPLPFLKPAGEKIAKFLMEFGLEGHHHHHH,not soluble
2,MSLVIVMYSIKMRASKNGKHISGAERIVNKDEIEETVKELVRRALTHENGTPDFINIKIEEIKEEITYINHLPIKTIHCKDKEEARETAKKILRNEGIPDSVIDYAYEIIDKGGMRGAAILNLKGERLEPDKERGVRVKNIDTTKELKEKILKENLGTERTVDAIAIASKVIHLGVIAELCTSDNKSYTTGYVATKKGYFRITNLKKEGESGGRVFFVKDDVDIEDLINKLENKPEGHHHHHH,soluble
3,MSLVQNNESVFFVECDSYKESPSTSPIRLDDLDGNDAVSDQGLAFDGDVGITSQARVRNPRAQIFEDSNTDVVLHLDDLDMVPLNTKFDMQMEMGSPMAMPAETPPPVEPLKTKDLAYSSLAHLPSYFFEQTHFRIDRKCLLEMSKLRRNYLTISKQDALSCPQLHSRVAGGYLKPVKEKLFGIRHFLDLEESNTVNLLQDGNYMTELFNSQINIPTFKEFREDFEWCLKIIRDRSLSRFSEKRLQYLVNKFPVFQHLHSKEEMRQSKKVPHKDFYNCRKIDLNLLLSGCFSQWQLTEFIWTKLRKEPDRVIHQAFNGSHITLSQLFKVNFEETGQFFNGLKIIDDSFLEWYKVIYLAKYHLVNDEMEIHTGSHGKQLRYYLIAKTFLEFDNYINGEYLAELLKTFLIKPQEESKYQLCQLSVDFQFYLHYDNSDVDNWWMVFANWLNHYNIFSNNIRWNIRISRIYPELYHTGKVKNFQEYLNLIFKPLFNAENYLHKSLGPILLKFLSQVSSIDLCIQDTDNYIWKNFTAVSCLPKDWTSGGDNPTISQYMYYVYVNLTKLNHIRQALHQNTFTLRSSCSPTSMNRTSQFSNTLNFTEHTEAILNNFLLACGGFLNAENLWNAPPSLVYLFYLSQIPMVVAPLNSIVDSKPTMLQEQAPTGLVLEPSKPYKKNPFMKFFEMGFKISLSSESILYNNSYTKEPIIEEYSVAASIYRLHSADLCELLRNSVITSGFSSTLKNKWLGVSLASHDYFVENTGFVDKWYDCKPNTSLEHNVPIIRRQYRSSTLAGEWRLIIAEGHHHHHH,not soluble
4,MSLVRGVLKRSKFRKMIRRAKVGDAKYIYELLTEFAKRGILLPRSLNSIYENIRDFWVYEKDGKVVGCVALHVMWEDLAEIRSLAVKEEYQKEGIGRELVIRALEDAWELGIKKVFSLTYVKEFFKKLGFKEIDKSVLPHKVWGECINCVKFPNCDEEAVLVELSEEYIKKLKEGEKISSLLPEGHHHHHH,soluble
5,MSLVTSVSKLMFLGGSNKLICHNKETFVKILENPNQPLITVSNHRSNIDDPLMWCILKFREFWRYKDRNRYTLAAHNICFTKQFHTTMFSLGRCVPCVRGEGVYQKGMDFCVDMLNDNKWVHIFPEGKVCTLESEPLRFKWGIGRLVMDAKTDPVILPVWCKEMEKVWPTQPPYYPKFGNTVTVHIGEPFFLSDLKKTVLSKSLTTEQMRKIITDEVQTRMYQLGEKVGDLPKGSSLEILRKNPPIEY,not soluble
6,MSLVVEQVKPNTGQEVQQIGQLQATKVKLPSTTKVALTKETQYLRNQVIASPVALFEIPADRGQMTLTITSEISDSVFYPHVMIVDAQGQVVESYEEVTFEYRKPRLHLGNRLVAELDFYPPQGYKSLFVLVYTKQQDLKGVTYVAHPARIDAEARGNYLPEVKDIPVPHTLTGTIELDVSGPSFLSFVRSEDRQTTTSTDAAKTQIQVQPDTQTYYFSSIERAVQANDLPKALSLLDEAKALGIEGAQEVFVKAVNARKEGHHHHHH,soluble
7,MSLVVFPFKHEHPEVLLHNVRVAAAHPRVHEVLCIGYERDQTYEAVERAAPEISRATGTPVSVRLQERLGTLRPGKGDGMNTALRYFLEETQWERIHFYDADITSFGPDWITKAEEAADFGYGLVRHYFPRASTDAMITWMITRTGFALLWPHTELSWIEQPLGGELLMRREVAAMLYEDERVRRRSDWGIDTLYTFVTVQQGVSIYECYIPEGKAHRLYGGLDDLRTMLVECFAAIQSLQHEVVGQPAIHRQEHPHRVPVHIAERVGYDVEATLHRLMQHWTPRQVELLELFTTPVREGLRTCQRRPAFNFMDEMAWAATYHVLLEHFQPGDPDWEELLFKLWTTRVLNYTMTVALRGYDYAQQYLYRMLGRYRYQAALENGRGHPVPPRAALSTA,soluble

# Source: the DeepSol protein solubility set
